Source: patent US20140274782A1, “AFFINITY REAGENTS AND METHODS FOR DETECTION, PURIFICATION, AND PROTEOMIC ANALYSIS OF METHYLATED PROTEINS” (The Board of Trustees of the Leland Stanford Junior …, priority 2013, published 2014)

Target: T1, G9a and GLP (Homo sapiens, UniProt Q96KQ7+Q9H9B1)
T1 construct: endogenous in cells; host or cells: HEK 293T
T1 sequence (Q96KQ7 2-1210 limits assumed): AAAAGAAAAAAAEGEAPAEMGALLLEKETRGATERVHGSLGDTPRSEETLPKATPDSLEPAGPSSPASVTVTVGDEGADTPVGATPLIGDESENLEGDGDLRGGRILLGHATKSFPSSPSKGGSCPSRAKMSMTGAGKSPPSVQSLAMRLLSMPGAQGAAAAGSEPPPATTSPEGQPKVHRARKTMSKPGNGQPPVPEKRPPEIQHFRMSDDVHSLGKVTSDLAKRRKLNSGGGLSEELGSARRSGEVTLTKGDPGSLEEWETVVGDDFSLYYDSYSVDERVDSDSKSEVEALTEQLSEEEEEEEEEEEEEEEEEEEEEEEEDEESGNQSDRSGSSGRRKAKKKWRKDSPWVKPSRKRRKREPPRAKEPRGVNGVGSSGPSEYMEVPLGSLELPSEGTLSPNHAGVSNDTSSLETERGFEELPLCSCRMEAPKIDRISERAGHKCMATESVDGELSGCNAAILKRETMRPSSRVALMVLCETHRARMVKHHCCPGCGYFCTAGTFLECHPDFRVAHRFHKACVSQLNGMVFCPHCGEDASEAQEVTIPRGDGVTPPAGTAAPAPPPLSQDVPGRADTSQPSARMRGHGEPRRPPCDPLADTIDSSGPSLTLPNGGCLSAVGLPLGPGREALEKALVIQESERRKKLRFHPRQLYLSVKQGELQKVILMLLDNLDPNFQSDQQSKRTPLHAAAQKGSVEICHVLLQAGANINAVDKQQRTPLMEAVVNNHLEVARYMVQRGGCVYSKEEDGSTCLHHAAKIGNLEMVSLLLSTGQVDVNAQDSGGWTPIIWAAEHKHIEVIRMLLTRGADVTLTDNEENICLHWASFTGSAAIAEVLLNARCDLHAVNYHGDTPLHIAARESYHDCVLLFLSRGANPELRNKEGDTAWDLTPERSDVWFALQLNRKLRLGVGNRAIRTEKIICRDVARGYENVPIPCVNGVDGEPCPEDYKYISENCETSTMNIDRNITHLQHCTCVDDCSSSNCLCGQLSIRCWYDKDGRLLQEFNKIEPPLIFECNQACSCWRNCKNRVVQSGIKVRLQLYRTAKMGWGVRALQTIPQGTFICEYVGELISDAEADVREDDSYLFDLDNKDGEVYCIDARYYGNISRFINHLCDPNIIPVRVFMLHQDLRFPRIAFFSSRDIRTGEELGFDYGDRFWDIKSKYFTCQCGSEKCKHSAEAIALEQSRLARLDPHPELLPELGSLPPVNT
T1 sequence (Q9H9B1 2-1298 limits assumed): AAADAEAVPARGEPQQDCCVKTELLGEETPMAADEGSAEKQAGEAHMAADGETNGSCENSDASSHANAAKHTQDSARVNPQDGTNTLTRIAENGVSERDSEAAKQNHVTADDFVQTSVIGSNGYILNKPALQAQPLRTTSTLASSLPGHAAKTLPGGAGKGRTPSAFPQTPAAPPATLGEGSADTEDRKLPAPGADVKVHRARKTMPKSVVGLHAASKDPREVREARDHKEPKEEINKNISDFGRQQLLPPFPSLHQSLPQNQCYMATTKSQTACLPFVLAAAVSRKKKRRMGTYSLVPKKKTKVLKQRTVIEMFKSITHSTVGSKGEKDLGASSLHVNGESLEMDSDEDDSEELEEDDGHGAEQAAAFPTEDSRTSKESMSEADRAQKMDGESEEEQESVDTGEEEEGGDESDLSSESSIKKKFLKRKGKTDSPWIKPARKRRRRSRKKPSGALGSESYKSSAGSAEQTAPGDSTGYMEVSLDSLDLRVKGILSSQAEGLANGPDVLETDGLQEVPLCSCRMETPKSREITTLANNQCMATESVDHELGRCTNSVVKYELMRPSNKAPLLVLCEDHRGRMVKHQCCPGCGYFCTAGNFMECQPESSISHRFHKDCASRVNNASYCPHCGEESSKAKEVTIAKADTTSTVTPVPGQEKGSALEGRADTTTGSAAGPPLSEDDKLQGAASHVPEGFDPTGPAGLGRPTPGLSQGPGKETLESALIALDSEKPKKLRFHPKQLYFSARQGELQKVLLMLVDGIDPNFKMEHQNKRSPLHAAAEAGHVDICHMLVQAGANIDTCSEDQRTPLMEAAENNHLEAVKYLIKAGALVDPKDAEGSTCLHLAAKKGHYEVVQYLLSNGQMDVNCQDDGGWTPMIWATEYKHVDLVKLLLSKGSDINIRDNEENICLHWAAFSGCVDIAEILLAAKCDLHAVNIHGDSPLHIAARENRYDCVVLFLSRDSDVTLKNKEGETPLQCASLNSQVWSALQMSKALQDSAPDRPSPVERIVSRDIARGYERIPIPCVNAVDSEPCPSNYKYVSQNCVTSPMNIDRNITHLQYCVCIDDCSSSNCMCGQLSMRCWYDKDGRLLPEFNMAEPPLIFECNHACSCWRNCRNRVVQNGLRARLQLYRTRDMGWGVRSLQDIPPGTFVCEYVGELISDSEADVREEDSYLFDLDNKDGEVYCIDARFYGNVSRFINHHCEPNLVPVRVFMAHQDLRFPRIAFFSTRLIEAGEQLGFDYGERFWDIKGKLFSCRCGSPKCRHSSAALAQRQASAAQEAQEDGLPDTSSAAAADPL
Test: Triple SILAC pull-down after UNC0638 treatment of 293T cells, DMSO/UNC0638 ratio of protein captured by 3×MBT;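 also: mass spectrometry (Q-Exactive) SILAC quantitation, DMSO/UNC0638 ratio computed after subtracting 3×MBTD355N mutant pull-down background, only proteins with at least twofold 3×MBT over mutant signal considered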
Type: cell-based
Conditions: for Relative to UNC0638 UNC Heavy / Relative to UNC0638 UNC Light: SILAC ratio DMSO/UNC0638 of protein pulled down with 3xMBT; for Relative to UNC0638 UNC Heavy: UNC0638 in heavy SILAC media; for Relative to UNC0638 UNC Light: UNC0638 in light SILAC media; for Relative to UNC0638 Average: average of UNC Light and UNC Heavy experiments; for Protein Ratios DMSO/UNC0638: SILAC ratio of protein captured by 3xMBT, 293T cells treated 24 hours with UNC0638 at 2.5 μM or DMSO; for Candidate G9a/GLP target: reduced association with 3xMBT after UNC0638 treatment

Substance | Relative to UNC0638 UNC Heavy [log base 2] | Relative to UNC0638 UNC Light [log base 2] | Relative to UNC0638 Average [log base 2] | Protein Ratios DMSO/UNC0638 | Candidate G9a/GLP target
SSRP1: protein with methylated lysine identified in 3xMBT pull-down | 0.00 | 0.26 | 0.13 |  | 
RBM25: protein with methylated lysine identified in 3xMBT pull-down | 0.25 | 0.29 | 0.27 |  | 
Protein Wiz | 0.83 | 0.29 | 0.56 | 1.5 | ✓
DNA ligase 1 | 0.83 | 1.06 | 0.95 | 1.9 | ✓

Results, then the substance that gave them:

Relative to UNC0638 UNC Heavy [log base 2] | Relative to UNC0638 UNC Light [log base 2] | Relative to UNC0638 Average [log base 2] | Protein Ratios DMSO/UNC0638 | Candidate G9a/GLP target | Substance
0.12 | 0.10 | 0.11 |  |  | MCM7: protein with methylated lysine identified in 3xMBT pull-down
0.18 | 0.06 | 0.12 |  |  | MSH6: protein with methylated lysine identified in 3xMBT pull-down
